*: point of attachment. sulfate = O=S(=O)(O)*
Key:
[1] = tested on: tyrosine sulfation (sulfotyrosine-containing sfGFP production); assay: green fluorescent protein assay of tyrosine sulfotransferase activity; assay type: cell-based, Escherichia coli; settings: BL21(DE3), pBad vector, sfGFP134TAG reporter, LB medium
Procedure: To explore the activity of these sulfotransferases towards tyrosine, a green fluorescent protein assay was used (Chen et al., 2018; Chen et al., 2019). […] The suppressor plasmid (pUltra-sulfotyrosine) was used to suppress the amber codon (Asp134TAG) within a sfGFP variant encoded by the pLei-sfGFP134TAG plasmid in the presence of sulfotyrosine. Expression of full-length sfGFP was carried out in LB medium for 16 hours in parallel with controls BL21(DE3) harboring pUltra-sulfotyrosine, pLei-sfGFP134TAG and pBad-Empty in the presence and absence of exogenously fed 1 mM sulfotyrosine.

[2] = target: T1, thrombin (Homo sapiens, UniProt P00734); settings: sulfated versus unsulfated hirudin; cited from earlier work
[3] = target: T1, thrombin; assay: chromogenic thrombin amidolytic activity assay; assay type: biochemical; settings: tight-binding model, Morrison equation; inhibitors expressed in E. coli, sulfotyrosine biosynthesized; read-out: Ki, inhibition of thrombin activity
Procedure: FIG. 18: Inhibition constants (Ki) of all thrombin inhibitors used in this study: Ki+standard error were calculated based on a tight-binding model, using Morrison equation in Prism. Standard errors were calculated from n=3 independent samples.
To test the thrombin inhibiting activity of the wild type inhibitors and their sulfotyrosine-containing mutants, chromogenic thrombin amidolytic activity assays were performed in the presence of a range of concentrations of each inhibitor. […] Double sulfation of chimadanin at both Tyr28 and Tyr31 further improved its Ki to 0.1 nM, consistent with the madanin-1 study. […] This may be due to the fact that co-translational folding is more efficient than that achieved via chemical synthesis.

B1: A0A091VQH7: putative sulfotransferase from Nipponia nippon, SEQ ID NO: 1 (protein)
chain: IALDKMEDLSLKETVVSRAEICEVEGIPFTKPICSTWDQVWKFKARPDDLLIATYTKAGTTWTQEIVDMIQQNGDVEKCRRATTYRRHPFLEWSIQEPPAASYSGLELAEAMPSPRTIKTHLPVQLLPPSFWEQNCKIIYVARNAKDNLVSYYHFHRMSKEMPDPGTWEEFMEKFMTGKVLWGSWYDHVKGWWKAKDRHRILYLFYEDMKENPKQEIQKILKFLEKDVNQEVLNKILHNTSFEIMKDNPMTNYTTEFQGIMDHSISPFMRKGVVGDWKNYFTVAQNEKFDEDYKKKMADTSLVFRTEL
modifications: Nipponia nippon
For B1, the “increase in fluorescence compared to cells not given exogenous sulfotyrosine” value [1] was 2.5 fold.

B2: hirudin: thrombin inhibitor; tyrosine-sulfated form compared with unsulfated; SEQ ID NO: 109 in Table 1 (protein, listed as Hirudo medicinalis)
chain: MKKNIAFLLASMFVFSIATNAYAMRYTACTESGQNQCICEGNDVCGQGRNCQFDSSGKKCVEGEGTRKPQNEGQHDFDPIPEEYLSHHHHHH
modifications: tyrosine sulfation
For B2, the “increase of affinity for thrombin by tyrosine sulfation” value [2] is given as “more than 10 fold”.

B3: Madanin-1 sulfated at both Tyr32 and Tyr35 (protein)
chain: MYPERDSAKEGNQEQERALHVKVQKRTDGDADY(sulfate)DEY(sulfate)EEDGTTPTPDPTAPTAKPRLRGNKPHHHHHH
Work on B3 yielded a Ki [3] of 0.5 nM.

B4: wildtype chimadanin: thrombin inhibitor from the salivary gland of Haemaphysalis longicornis, His-tagged, expressed in E. coli; Table 1 sequence names seem swapped (protein)
chain: MQPKEKTKGVEVEGNPATLISARQMDVSYDEYEDNGPDVIPGEPAKPRGGPKNGAASGKFDQIPDFSSESHHHHHHH
Work on B4 yielded a Ki [3] of 12.9 nM.

From patent US20240344040A1, “PROKARYOTIC AND EUKARYOTIC CELLS WITH BIOSYNTHESIZED SULFOTYROSINE FOR GENETIC INCORPORATION” (William Marsh Rice University, priority 2023, published 2024)
